Reference: patent publication US20220106400A1

Key:
hCD64 (FcgRI) (human) [1] = biological target: hCD64 (FcgRI) (human) (UniProt P12314); experiment: told in the description as a result of the Examples; method not given
hCD64 (FcgRI) (human) [2] = biological target: hCD64 (FcgRI) (human) (UniProt P12314); experiment: FcR binding, Example 16
[3] = biological target: human GITR on activated human CD4 T cells (human) (UniProt Q9Y5U5); experiment: FACS binding to anti-CD3/CD28-activated human CD4 T cells
Sequence of human GITR on activated human CD4 T cells (human) (Q9Y5U5 26-241): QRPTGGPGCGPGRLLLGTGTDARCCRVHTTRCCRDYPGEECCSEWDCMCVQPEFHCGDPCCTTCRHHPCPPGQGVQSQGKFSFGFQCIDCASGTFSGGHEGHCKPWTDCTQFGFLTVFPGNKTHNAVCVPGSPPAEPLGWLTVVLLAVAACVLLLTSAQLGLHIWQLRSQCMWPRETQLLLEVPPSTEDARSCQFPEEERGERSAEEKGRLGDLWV

Sequence of hCD64 (FcgRI) (human) (P12314 16-288 limits assumed): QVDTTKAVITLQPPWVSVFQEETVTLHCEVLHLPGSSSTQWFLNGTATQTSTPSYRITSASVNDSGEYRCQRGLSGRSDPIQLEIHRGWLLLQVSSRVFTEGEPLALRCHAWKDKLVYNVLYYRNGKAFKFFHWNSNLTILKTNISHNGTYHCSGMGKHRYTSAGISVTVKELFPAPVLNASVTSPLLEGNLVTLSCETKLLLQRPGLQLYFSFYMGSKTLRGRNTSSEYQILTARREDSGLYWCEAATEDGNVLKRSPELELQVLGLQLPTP

Row | EC50 [3] | Substance | other results
1 | – | antibody with IgG1 P238K (Example 13) | fold reduction of binding relative to wildtype IgG1 (hCD64 (FcgRI) (human) [1]): 100 fold
2 | – | antibody with IgG1f-L235E-P238K heavy chain constant domain (Example 16) | fold reduction of CD64 binding against P238K alone (hCD64 (FcgRI) (human) [2]): 1000 fold
3 | 132 nM | unrelated hIgG1 | –
4 | 6.72 nM | unrelated hIgG2 | –
